B1: ZNF511 (parent)
chain: HLYPADFRFDKPKKSRSPASAEAP

Variants of: B1
Assay: protein stability index of a GFP-peptide fusion (GPS, HEK-293T) (PSI 1-6); higher = more stable
Conditions: c terminus: a fixed tail appended
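Further: lentivirally expressed fusions sorted by FACS into six bins by GFP to DsRed ratio, PSI derived from sequencing read proportions per bin multiplied by bin number.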

Row | Variant | protein stability index
1 | HLYLADFRFDKPKKSRSPASAEAP | 3.56
2 | HLYYADFRFDKPKKSRSPASAEAP | 2.73
3 | HLYTADFRFDKPKKSRSPASAEAP | 3.77
4 | HLYFADFRFDKPKKSRSPASAEAP | 2.85
5 | HLYSADFRFDKPKKSRSPASAEAP | 3.9
6 | HLYDADFRFDKPKKSRSPASAEAP | 4.22
7 | HLYPADFRFDKPKKSRSYASAEAP | 2.34
8 | MLYPADFRFDKPKKSRSPASAEAP | 4.09
9 | YLYPADFRFDKPKKSRSPASAEAP | 2.08
10 | HLYPADFRFDKPKKSRSPASEEAP | 3.08
11 | HLYPADFRFDKPKKSRSPASLEAP | 2.38
12 | HLYPADFRFDKPKKSRSPASHEAP | 3.12
13 | HLYPADFRFDKPKKSRSPASKEAP | 2.81
14 | HLYPADFRFDKPKYSRSPASAEAP | 2.62
15 | HLYPADFRFDKPKLSRSPASAEAP | 3.24
16 | HLYPADFRFDKPKGSRSPASAEAP | 3.22
17 | HLYPADFRFDKPKMSRSPASAEAP | 3.17
18 | HLYPADFRFDKPKESRSPASAEAP | 3.23
19 | HLYPAWFRFDKPKKSRSPASAEAP | 2.87
20 | HLYPANFRFDKPKKSRSPASAEAP | 2.82
21 | HLYPATFRFDKPKKSRSPASAEAP | 2.48
22 | HLYPAQFRFDKPKKSRSPASAEAP | 2.18
23 | HLYPAPFRFDKPKKSRSPASAEAP | 3.19
24 | HLYPALFRFDKPKKSRSPASAEAP | 2.61

Row | Variant | protein stability index
25 | HLYPAMFRFDKPKKSRSPASAEAP | 1.55
26 | HLYPADFRFHKPKKSRSPASAEAP | 1.52
27 | HLYPADFRFNKPKKSRSPASAEAP | 2.39
28 | HLYPADFRFAKPKKSRSPASAEAP | 2.16
29 | HLYPADFRFDKPKKSRSPASAHAP | 2.63
30 | HLYPADFRFDKPKKSRSPASAFAP | 2.52
31 | HLYPADFRFDKPKKSRSPASAMAP | 2.19
32 | HLYPADFRFDKPKKSRSPASAEAY | 2.69
33 | HLYPADFRFDKPKKSRSPASAEAE | 2.6
34 | HLYPADFRFDKPKKSRSPASAEAC | 2.88
35 | HLYPADFRFDNPKKSRSPASAEAP | 3.37
36 | HLYPADFRFDVPKKSRSPASAEAP | 3.52
37 | HLYPADFRFDIPKKSRSPASAEAP | 3.56
38 | HLYPADFRFDCPKKSRSPASAEAP | 3.21
39 | HLYPTDFRFDKPKKSRSPASAEAP | 3.11
40 | HLYPVDFRFDKPKKSRSPASAEAP | 3.6
41 | HLYPRDFRFDKPKKSRSPASAEAP | 3.21
42 | HLYPADFRFDKPKKNRSPASAEAP | 2.67
43 | HLYPADFRFDKPKKRRSPASAEAP | 1.78
44 | HLYPADFRFDKPKKHRSPASAEAP | 2.93
45 | HLYPADFRFDKPKKYRSPASAEAP | 2.51
46 | HLYPADFRFDKPKKSRSPAPAEAP | 2.72
47 | HLYPADFRFDKPKKSRSPALAEAP | 2.51
48 | HLYPADFRFDKPKKSRSPACAEAP | 2.92

Row | Variant | protein stability index
49 | HHYPADFRFDKPKKSRSPASAEAP | 3.58
50 | HIYPADFRFDKPKKSRSPASAEAP | 1.9
51 | HDYPADFRFDKPKKSRSPASAEAP | 4.91
52 | HLYPADFRFDKPKKSISPASAEAP | 2.6
53 | HLYPADFRFDKPKKSMSPASAEAP | 3.28
54 | HLYPADFRFDKPKKSFSPASAEAP | 2.73
55 | HLYPADFRFDKPKKSLSPASAEAP | 2.97
56 | HLYPADFVFDKPKKSRSPASAEAP | 1.6
57 | HLYPADFSFDKPKKSRSPASAEAP | 2.05
58 | HLYPADFWFDKPKKSRSPASAEAP | 1.8
59 | HLYPADFIFDKPKKSRSPASAEAP | 2.03
60 | HLYPADFGFDKPKKSRSPASAEAP | 2.53
61 | HLYPADFKFDKPKKSRSPASAEAP | 3.3
62 | HLYPADFRFDKPYKSRSPASAEAP | 3.56
63 | HLYPADFRFDKPCKSRSPASAEAP | 2.8
64 | HLYPADFRFDKPAKSRSPASAEAP | 3.07
65 | HLYPADFRFDKPVKSRSPASAEAP | 2.22
66 | HLYPADFRKDKPKKSRSPASAEAP | 4.12
67 | HLYPADFRQDKPKKSRSPASAEAP | 2
68 | HLYPADFRLDKPKKSRSPASAEAP | 3.18
69 | HLYPADFRGDKPKKSRSPASAEAP | 2.63
70 | HLYPADFRFDKPKKSRDPASAEAP | 3.28
71 | HLYPADFRFDKPKKSRRPASAEAP | 3.29
72 | HLYPADFRFDKPKKSRVPASAEAP | 2.28

Row | Variant | protein stability index
73 | HLYPADFRFDKPKKSRWPASAEAP | 2.27
74 | HLYPADFRFDKPKKSRFPASAEAP | 2.7
75 | HLYPADFRFDKPKKSRAPASAEAP | 2.61
76 | HLYPADFRFDKPKKSRGPASAEAP | 2.63
77 | HLYPADFRFDKPKKSRTPASAEAP | 2.97
78 | HLTPADFRFDKPKKSRSPASAEAP | 4.65
79 | HLMPADFRFDKPKKSRSPASAEAP | 4.4
80 | HLHPADFRFDKPKKSRSPASAEAP | 2.69
81 | HLYPADFRFDKVKKSRSPASAEAP | 2.8
82 | HLYPADFRFDKDKKSRSPASAEAP | 3.2
83 | HLYPADFRFDKPKKSRSPTSAEAP | 3.29
84 | HLYPADFRFDKPKKSRSPCSAEAP | 2.63
85 | HLYPADFRFDKPKKSRSPVSAEAP | 2.87
86 | HLYPADFRFDKPKKSRSPMSAEAP | 2.7
87 | HLYPADFRFDKPKKSRSPASAEPP | 3.37
88 | HLYPADFRFDKPKKSRSPASAEWP | 2.82
89 | HLYPADFRFDKPKKSRSPASAEVP | 2.73
90 | HLYPADHRFDKPKKSRSPASAEAP | 3.98
91 | HLYPADNRFDKPKKSRSPASAEAP | 4.15
92 | HLYPADVRFDKPKKSRSPASAEAP | 4.62
93 | HLYPADMRFDKPKKSRSPASAEAP | 4.38
94 | HLYPADTRFDKPKKSRSPASAEAP | 4.25
